# In the RNAGym collection of RNA variant scans (doi:10.1073/pnas.2313332121):
# B1: TPR t1 (parent)
# chain: GACCAAUCUGCCCUCAGAGCUCGAGAACAUCUUCGGAUGCAGAGGAGGCAGGCUUCGGUGGCGCGAUAGCGCCAACGUCCUCAACCUCCAAUGCAUCCCACCACAUGAUGAUGCCUGAAGAGCCUUGGUUUUUUG
# Variants of: B1
# Assay: polymerase ribozyme fitness, log enrichment relative to wild type (log ratio); higher = more active; in vitro selection for triplet polymerase activity
# Summary of the method: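 Frozen incubation at −7 °C formed the core of a single, triplicate in vitro selection round applied to PCR-built, transcribed mutant libraries of each subunit of a heterodimeric triplet polymerase ribozyme. Extended constructs were gel-excised, captured with streptavidin beads and amplified by RT-PCR, and input and output libraries were Illumina-sequenced with a filter of ≥10 input reads and ≥1 read per output. Fitness is the logarithm of genotype enrichment relative to wild-type enrichment, with inverse-variance-weighted replicate averaging, and the logarithm is base 2.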
row,Variant,polymerase ribozyme fitness (log ratio)
1,GACCAAUCUGCCCUCAGAGCUCGAGAACAUCUUCGGAUGCAGAUGAGGCAGGCUUCGGUGGCGCGAUAGCGCCAACGCCCUCAACCUCCAAUGCAUCCCACCACAUGGUGAUGCCUGAAGAGCCUUGGUUUUUUG [G44U U78C A108G],-4.95
2,GACCAAUCUGCCCUCAGAGCUCGAGAACAUCUUCGGAUGCAGAUGAGGCAGGCUUCGGUGGCGCGAUAGCGCCAACGUCCUCAACCUCCAAAGCAUCCCACCACAUGAUGAUGCCUGAAGAGCCUUGGUUUUUUG [G44U U92A],-3.67
3,GACCAAUCUGCCCUCAGAGCUCGAGAACAUCUUCGGAUGCAGAGACGGUAGGCUUCGGUGGCGCGAUAGCGCCAACGUCCUCAACCUCCAAUGCAUCCCAACACAUGAUGAGGCCUGAAGAGCCUUGGUUAUUUG [G45A A46C C49U C101A U112G U131A],-5.02
4,GACCAAUCUGCCCUCAGAGCUCGAGAACAUCUUCGGAUGCAGAGAGGGCCGGCUUCGGUGGCGCGAUAGCGCCAACGUCCUCAACCUCAAAUGCAUCCCACCACAUGAUGAUGCCUGAAGAGCCUUGGUUUUUUG [G45A A46G A50C C89A],-3.72
5,GACCAAUCUGCCCUCAGAGCUCGAGAACAUCUUCGGAUGCAGAGAUGGCAGGCUUCGGUGGCGCGAUAGCGCCAACGUCCUCAACCUCCAAUGCAUCCCACCACAUGAUGAUGCCUGAAGAGCCUUGGUUUUUUG [G45A A46U],-1.72
6,GACCAAUCUGCCCUCAGAGCUCGAGAACAUCUUCGGAUGCAGAGAAGGCCGGCUUCGGUGGCGCGAUAGCGCCAACGUCCUCAACCUCCAAUGCAUCCCACCACAUGAUGAUGCCUGAAGAGCCUUGGUUUUUUG [G45A A50C],-1.09
7,GACCAAUCUGCCCUCAGAGCUCGAGAACAUCUUCGGAUGCAGAGAAGGCGGACUUCGGUGUCGCGAUAGCGCCAACGUCCUCAACCUCCAAUGCAUCCCACCACAUGAUGAUGCCUGAAGAGCCUUGGUUGUUUG [G45A A50G G52A G61U U131G],-3.62
8,GACCAAUCUGCCCUCAGAGCUCGAGAACAUCUUCGGAUGCAGAGAAGGCGGGCUUCGGUGGCGCGAUAGCGCCAACGUCCUCAACCUCCAAUCCAUCCCACCACAUGAUGAUGCCUGAAGAGCCUUGGUUUUUUG [G45A A50G G93C],-1.62
9,GACCAAUCUGCCCUCAGAGCUCGAGAACAUCUUCGGAUGCAGAGAAGGCAGGCUUCGGUGGCGCGAUAGCGCCGACGUCCUCAACCUCCAAUGCAUCCCACCACAUGAUGAUGCGUGAAGAGCCUUCGUUUUUUG [G45A A74G C115G G127C],-4.14
10,GACCAAUCUGCCCUCAGAGCUCGAGAACAUCUUCGGAUGCAGAGAAGGCAGGCUUCGGUGGCGCGAUAGCGCCUACGUCCUCAACCUCCAAUGCAUCCCACCACAUGAUGAGGCCUGAAGAGCCUUGGUUUUUUG [G45A A74U U112G],-0.353
11,GACCAAUCUGCCCUCAGAGCUCGAGAACAUCUUCGGAUGCAGAGAAGGCAGGCUUCGGUGGCGCGAUAGCGCCAACGUCCUCAACCUCCAAUGCCUCCCACCACAUGAUGUUGCCUGAAGAGCCUUGGUUUUUUG [G45A A95C A111U],-3.67
12,GACCAAUCUGCCCUCAGAGCUCGAGAACAUCUUCGGAUGCAGAGAAGGCAGGCUUCGGUGGCGCGAUAGCGCCAACGUCCUCAACCUCCAAUGCAUCCCACCCCAAGAUGAUGCGUGAAGAGCCUUGGUUUUUUG [G45A A103C U106A C115G],-5.5
13,GACCAAUCUGCCCUCAGAGCUCGAGAACAUCUUCGGAUGCAGAGAAGGCAGGCUUCGGUGGCGCGAUAGCGCCAACGUCCUCAACCUCCAAUGCAUCCCACCACAUGGUGAUGCCUGAAGAGCCUUGGUUUUUUG [G45A A108G],-2.36
14,GACCAAUCUGCCCUCAGAGCUCGAGAACAUCUUCGGAUGCAGAGAAGGCAGGCUUCGGUGGCGCGAUAGCGCCAACGUCCUCAACCUCCAAUGCAUCCCACCACAUGAUGCUGCCUGAAGAGCCUUGGUUUUUUG [G45A A111C],-0.541
15,GACCAAUCUGCCCUCAGAGCUCGAGAACAUCUUCGGAUGCAGAGAAGGAAGGCUUCGGUGGCGCGAUAGCGCCAACGUCCUCAACCUCCAAUGCAUCCCACCACAUGAUGAUGCCUGAAGAGCCUUGGUUUUUUG [G45A C49A],-0.473
16,GACCAAUCUGCCCUCAGAGCUCGAGAACAUCUUCGGAUGCAGAGAAGGCAGGUUUCGGUGGCGCGAUAGCGCCAACGUCCUCAACCUCCAAUGCAUCCCACCACAUGAUGAUGCCUGAAGAGCCUUGGUUUUUUG [G45A C53U],-1.11
17,GACCAAUCUGCCCUCAGAGCUCGAGAACAUCUUCGGAUGCAGAGAAGGCAGGCUUCGGUGGCGCGAUAGAGCCAACGUCCUCAACCUCCAAUGCAUCCCACCACAUGAUGAUGCAUGAAGAGCCUUGGUUUUUUG [G45A C70A C115A],-0.928
18,GACCAAUCUGCCCUCAGAGCUCGAGAACAUCUUCGGAUGCAGAGAAGGCAGGCUUCGGUGGCGCGAUAGGGCCAACGUCCUCAAACUCCAAUGCAUCCCACCACAUGAUGAUGCCUGAAGAGCCUUGGUUUUUUG [G45A C70G C85A],-4.9
19,GACCAAUCUGCCCUCAGAGCUCGAGAACAUCUUCGGAUGCAGAGAAGGCAGGCUUCGGUGGCGCGAUAGUGCCAACGUCCUCAACCUCCAAUGCAUCCCACCACAUGAUGAUGCCUGAAGAGCCUUGGUUUUUUG [G45A C70U],-1.29
20,GACCAAUCUGCCCUCAGAGCUCGAGAACAUCUUCGGAUGCAGAGAAGGCAGGCUUCGGUGGCGCGAUAGCGACAACGUCCUCAACCUCCAAUGCAUCCCACCACAUGAUGAUGCCUUAAGAGCCUUGGUUUUUUG [G45A C72A G117U],-2.7
21,GACCAAUCUGCCCUCAGAGCUCGAGAACAUCUUCGGAUGCAGAGAAGGCAGGCUUCGGUGGCGCGAUAGCGCAAACGUCCUCAACCUCCAAUGCAUCCCACCACAUGAUGAUGCCUGAAGAGCCUUGGUUUUGUG [G45A C73A U133G],-0.489
